In patent US20210246166A1 (Bayer, published 2021):
Bridge positions count the residues as written; N and C are the ends. Square brackets hold non-standard residues; d marks the D form. Ends that are not written are not given here. Pro(cis-4-CF3) = O=C(O)[C@@H]1C[C@H](C(F)(F)F)CN1; Oic = O=C(O)[C@@H]1C[C@@H]2CCCC[C@@H]2N1; tBuAla = CC(C)(C)C[C@H](N)C(=O)O; Chg = N[C@H](C(=O)O)C1CCCCC1; Pen = CC(C)(S)[C@H](N)C(=O)O; Tranexamic = tranexamic acid; NMeC = CN[C@@H](CS)C(=O)O; NMeA = CN[C@@H](C)C(=O)O; Dab = NCC[C@H](N)C(=O)O; Abu = CC[C@H](N)C(=O)O; Sar = CNCC(=O)O

T1: Recombinant human MASP1 enzyme (fragment corresponding to amino acids 297-699, C-terminal His Tag) (human, UniProt P48740 297-699)
T1 sequence: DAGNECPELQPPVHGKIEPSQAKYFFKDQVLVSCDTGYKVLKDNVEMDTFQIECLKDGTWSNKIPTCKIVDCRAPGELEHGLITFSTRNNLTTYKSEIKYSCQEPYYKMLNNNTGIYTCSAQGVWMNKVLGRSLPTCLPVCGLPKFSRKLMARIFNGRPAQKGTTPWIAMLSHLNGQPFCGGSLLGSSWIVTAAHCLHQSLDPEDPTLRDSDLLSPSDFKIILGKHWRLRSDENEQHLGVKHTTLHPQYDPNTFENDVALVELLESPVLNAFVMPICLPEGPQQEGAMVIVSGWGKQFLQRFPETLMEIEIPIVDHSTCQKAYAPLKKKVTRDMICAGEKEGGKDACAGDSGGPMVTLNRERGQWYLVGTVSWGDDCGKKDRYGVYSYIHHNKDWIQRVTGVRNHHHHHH

B1: AIC+SRS-((tBu)A)-PPI-(Pen)+IP-(Tranexamic)-NH2 (peptide)
peptide: AICSRS[tBuAla]PPI[Pen]IP[Tranexamic]-NH2
modifications: disulfide 3-11
B2: aIC+SRSLP-(Oic)-I-(Pen)+I-NH2 (peptide)
peptide: [dA]ICSRSLP[Oic]I[Pen]I-NH2
modifications: disulfide 3-11; N-terminus assumed
SMILES: CC[C@H](C)[C@H](NC(=O)[C@H]1NC(=O)[C@H]([C@@H](C)CC)NC(=O)[C@@H]2C[C@@H]3CCCC[C@@H]3N2C(=O)[C@@H]2CCCN2C(=O)[C@H](CC(C)C)NC(=O)[C@H](CO)NC(=O)[C@H](CCCNC(=N)N)NC(=O)[C@H](CO)NC(=O)[C@@H](NC(=O)[C@@H](NC(=O)[C@@H](C)N)[C@@H](C)CC)CSSC1(C)C)C(N)=O
B3: ((N-Me)G)-IC+SRS-((tBu)A)-PPI-(Pen)+IP-NH2 (peptide)
peptide: [Sar]ICSRS[tBuAla]PPI[Pen]IP-NH2
modifications: disulfide 3-11; N-terminus assumed
SMILES: CC[C@H](C)[C@H](NC(=O)CNC)C(=O)N[C@H]1CSSC(C)(C)[C@@H](C(=O)N[C@H](C(=O)N2CCC[C@H]2C(N)=O)[C@@H](C)CC)NC(=O)[C@H]([C@@H](C)CC)NC(=O)[C@@H]2CCCN2C(=O)[C@@H]2CCCN2C(=O)[C@H](CC(C)(C)C)NC(=O)[C@H](CO)NC(=O)[C@H](CCCNC(=N)N)NC(=O)[C@H](CO)NC1=O
B4: ((N-Me)A)-IC+SRSLP-(Oic)-I-(Pen)+IPD-OH (peptide)
peptide: [NMeA]ICSRSLP[Oic]I[Pen]IPD-OH
modifications: disulfide 3-11; N-terminus assumed
SMILES: CC[C@H](C)[C@H](NC(=O)[C@H](C)NC)C(=O)N[C@H]1CSSC(C)(C)[C@@H](C(=O)N[C@H](C(=O)N2CCC[C@H]2C(=O)N[C@@H](CC(=O)O)C(=O)O)[C@@H](C)CC)NC(=O)[C@H]([C@@H](C)CC)NC(=O)[C@@H]2C[C@@H]3CCCC[C@@H]3N2C(=O)[C@@H]2CCCN2C(=O)[C@H](CC(C)C)NC(=O)[C@H](CO)NC(=O)[C@H](CCCNC(=N)N)NC(=O)[C@H](CO)NC1=O
B5: (Dab)-IC+SRS-((tBu)A)-PPI-(Pen)+IP-NH2 (peptide)
peptide: [Dab]ICSRS[tBuAla]PPI[Pen]IP-NH2
modifications: disulfide 3-11; N-terminus assumed
SMILES: CC[C@H](C)[C@H](NC(=O)[C@@H](N)CCN)C(=O)N[C@H]1CSSC(C)(C)[C@@H](C(=O)N[C@H](C(=O)N2CCC[C@H]2C(N)=O)[C@@H](C)CC)NC(=O)[C@H]([C@@H](C)CC)NC(=O)[C@@H]2CCCN2C(=O)[C@@H]2CCCN2C(=O)[C@H](CC(C)(C)C)NC(=O)[C@H](CO)NC(=O)[C@H](CCCNC(=N)N)NC(=O)[C@H](CO)NC1=O
B6: ((N-Me)A)-IC+SRSLP-(Oic)-I-(Pen)+IPE-OH (peptide)
peptide: [NMeA]ICSRSLP[Oic]I[Pen]IPE-OH
modifications: disulfide 3-11; N-terminus assumed
SMILES: CC[C@H](C)[C@H](NC(=O)[C@H](C)NC)C(=O)N[C@H]1CSSC(C)(C)[C@@H](C(=O)N[C@H](C(=O)N2CCC[C@H]2C(=O)N[C@@H](CCC(=O)O)C(=O)O)[C@@H](C)CC)NC(=O)[C@H]([C@@H](C)CC)NC(=O)[C@@H]2C[C@@H]3CCCC[C@@H]3N2C(=O)[C@@H]2CCCN2C(=O)[C@H](CC(C)C)NC(=O)[C@H](CO)NC(=O)[C@H](CCCNC(=N)N)NC(=O)[C@H](CO)NC1=O
B7: aIC+SRSLP-(Oic)-I-(Pen)+IP-NH2 (peptide)
peptide: [dA]ICSRSLP[Oic]I[Pen]IP-NH2
modifications: disulfide 3-11; N-terminus assumed
SMILES: CC[C@H](C)[C@H](NC(=O)[C@@H](C)N)C(=O)N[C@H]1CSSC(C)(C)[C@@H](C(=O)N[C@H](C(=O)N2CCC[C@H]2C(N)=O)[C@@H](C)CC)NC(=O)[C@H]([C@@H](C)CC)NC(=O)[C@@H]2C[C@@H]3CCCC[C@@H]3N2C(=O)[C@@H]2CCCN2C(=O)[C@H](CC(C)C)NC(=O)[C@H](CO)NC(=O)[C@H](CCCNC(=N)N)NC(=O)[C@H](CO)NC1=O
B8: ((N-Me)G)-IC+SRSLP-(Oic)-I-(Pen)+IPD-NH2 (peptide)
peptide: [Sar]ICSRSLP[Oic]I[Pen]IPD-NH2
modifications: disulfide 3-11; N-terminus assumed
SMILES: CC[C@H](C)[C@H](NC(=O)CNC)C(=O)N[C@H]1CSSC(C)(C)[C@@H](C(=O)N[C@H](C(=O)N2CCC[C@H]2C(=O)N[C@@H](CC(=O)O)C(N)=O)[C@@H](C)CC)NC(=O)[C@H]([C@@H](C)CC)NC(=O)[C@@H]2C[C@@H]3CCCC[C@@H]3N2C(=O)[C@@H]2CCCN2C(=O)[C@H](CC(C)C)NC(=O)[C@H](CO)NC(=O)[C@H](CCCNC(=N)N)NC(=O)[C@H](CO)NC1=O
B9: AIC+SRS-((tBu)A)-P-((4-CF3)P)-IC+IPD-NH2 (peptide)
peptide: AICSRS[tBuAla]P[Pro(cis-4-CF3)]ICIPD-NH2
modifications: disulfide 3-11; N-terminus assumed
SMILES: CC[C@H](C)[C@H](NC(=O)[C@H](C)N)C(=O)N[C@H]1CSSC[C@@H](C(=O)N[C@H](C(=O)N2CCC[C@H]2C(=O)N[C@@H](CC(=O)O)C(N)=O)[C@@H](C)CC)NC(=O)[C@H]([C@@H](C)CC)NC(=O)[C@@H]2C[C@H](C(F)(F)F)CN2C(=O)[C@@H]2CCCN2C(=O)[C@H](CC(C)(C)C)NC(=O)[C@H](CO)NC(=O)[C@H](CCCNC(=N)N)NC(=O)[C@H](CO)NC1=O
B10: ((N-Me)G)-IC+SRSLP-(Oic)-I-(Pen)+I-((5-Azaspiro[2.4]heptane-1-carboxylic acid)-OH (peptide)
peptide: [Sar]ICSRSLP[Oic]I[Pen]I[5‑Azaspiro(2.4)heptane‑1‑carboxylic acid]-OH
modifications: disulfide 3-11
B11: AIC+SRSLP-(Oic)-I-((N-Me)C)+I-NH2 (peptide)
peptide: AICSRSLP[Oic]I[NMeC]I-NH2
modifications: disulfide 3-11; N-terminus assumed
SMILES: CC[C@H](C)[C@H](NC(=O)[C@@H]1CSSC[C@H](NC(=O)[C@@H](NC(=O)[C@H](C)N)[C@@H](C)CC)C(=O)N[C@@H](CO)C(=O)N[C@@H](CCCNC(=N)N)C(=O)N[C@@H](CO)C(=O)N[C@@H](CC(C)C)C(=O)N2CCC[C@H]2C(=O)N2[C@@H](C[C@@H]3CCCC[C@@H]32)C(=O)N[C@@H]([C@@H](C)CC)C(=O)N1C)C(N)=O
B12: (Abu)-IC+SRSLPP-(Chg)-C+IPD-NH2 (peptide)
peptide: [Abu]ICSRSLPP[Chg]CIPD-NH2
modifications: disulfide 3-11; N-terminus assumed
SMILES: CC[C@H](N)C(=O)N[C@H](C(=O)N[C@H]1CSSC[C@@H](C(=O)N[C@H](C(=O)N2CCC[C@H]2C(=O)N[C@@H](CC(=O)O)C(N)=O)[C@@H](C)CC)NC(=O)[C@H](C2CCCCC2)NC(=O)[C@@H]2CCCN2C(=O)[C@@H]2CCCN2C(=O)[C@H](CC(C)C)NC(=O)[C@H](CO)NC(=O)[C@H](CCCNC(=N)N)NC(=O)[C@H](CO)NC1=O)[C@@H](C)CC
B13: AIC+SRSLPPI-(Pen)+IPD-NH2 (peptide)
peptide: AICSRSLPPI[Pen]IPD-NH2
modifications: disulfide 3-11; N-terminus assumed
SMILES: CC[C@H](C)[C@H](NC(=O)[C@H](C)N)C(=O)N[C@H]1CSSC(C)(C)[C@@H](C(=O)N[C@H](C(=O)N2CCC[C@H]2C(=O)N[C@@H](CC(=O)O)C(N)=O)[C@@H](C)CC)NC(=O)[C@H]([C@@H](C)CC)NC(=O)[C@@H]2CCCN2C(=O)[C@@H]2CCCN2C(=O)[C@H](CC(C)C)NC(=O)[C@H](CO)NC(=O)[C@H](CCCNC(=N)N)NC(=O)[C@H](CO)NC1=O
B14: ((N-Me)G)-IC+SRS-((tBu)A)-PPI-(Pen)+IPP-NH2 (peptide)
peptide: [Sar]ICSRS[tBuAla]PPI[Pen]IPP-NH2
modifications: disulfide 3-11; N-terminus assumed
SMILES: CC[C@H](C)[C@H](NC(=O)CNC)C(=O)N[C@H]1CSSC(C)(C)[C@@H](C(=O)N[C@H](C(=O)N2CCC[C@H]2C(=O)N2CCC[C@H]2C(N)=O)[C@@H](C)CC)NC(=O)[C@H]([C@@H](C)CC)NC(=O)[C@@H]2CCCN2C(=O)[C@@H]2CCCN2C(=O)[C@H](CC(C)(C)C)NC(=O)[C@H](CO)NC(=O)[C@H](CCCNC(=N)N)NC(=O)[C@H](CO)NC1=O
B15: ((N-Me)G)-IC+SRSLP-(Oic)-I-(Pen)+IP-OH (peptide)
peptide: [Sar]ICSRSLP[Oic]I[Pen]IP-OH
modifications: disulfide 3-11; N-terminus assumed
SMILES: CC[C@H](C)[C@H](NC(=O)CNC)C(=O)N[C@H]1CSSC(C)(C)[C@@H](C(=O)N[C@H](C(=O)N2CCC[C@H]2C(=O)O)[C@@H](C)CC)NC(=O)[C@H]([C@@H](C)CC)NC(=O)[C@@H]2C[C@@H]3CCCC[C@@H]3N2C(=O)[C@@H]2CCCN2C(=O)[C@H](CC(C)C)NC(=O)[C@H](CO)NC(=O)[C@H](CCCNC(=N)N)NC(=O)[C@H](CO)NC1=O

molecular target: T1, Recombinant human MASP1 enzyme …; experiment: cell-based or functional assay

B1 and B2 are within 1.5-fold of each other in “human MASP1 IC50” value: 4.3 nM for the first, 3.9 nM for the second.

B3 and B4 are within 1.5-fold of each other in “human MASP1 IC50” value: 3.8 nM for the first, 3.9 nM for the second.

B5 and B6 are within 1.5-fold of each other in “human MASP1 IC50” value: 4 nM for the first, 3.9 nM for the second.

B7 and B8 are within 1.5-fold of each other in “human MASP1 IC50” value: 4.3 nM for the first, 4.05 nM for the second.

B9 and B10 are within 1.5-fold of each other in “human MASP1 IC50” value: 3.9 nM for the first, 4 nM for the second.

B11 and B12 are within 1.5-fold of each other in “human MASP1 IC50” value: 3.9 nM for the first, 4.25 nM for the second.

B13 and B14 are within 1.5-fold of each other in “human MASP1 IC50” value: 4.3 nM for the first, 3.8 nM for the second.

For B15, the “human MASP1 IC50” value was 4.2 nM.

molecular target: Recombinant human MASP2 enzyme (fragment corresponding to amino acids 297-686, C-terminal His Tag) (human, UniProt O00187 297-686); experiment: cell-based or functional assay
Sequence (O00187 other isoform, or with tags, fused parts or gaps limits assumed): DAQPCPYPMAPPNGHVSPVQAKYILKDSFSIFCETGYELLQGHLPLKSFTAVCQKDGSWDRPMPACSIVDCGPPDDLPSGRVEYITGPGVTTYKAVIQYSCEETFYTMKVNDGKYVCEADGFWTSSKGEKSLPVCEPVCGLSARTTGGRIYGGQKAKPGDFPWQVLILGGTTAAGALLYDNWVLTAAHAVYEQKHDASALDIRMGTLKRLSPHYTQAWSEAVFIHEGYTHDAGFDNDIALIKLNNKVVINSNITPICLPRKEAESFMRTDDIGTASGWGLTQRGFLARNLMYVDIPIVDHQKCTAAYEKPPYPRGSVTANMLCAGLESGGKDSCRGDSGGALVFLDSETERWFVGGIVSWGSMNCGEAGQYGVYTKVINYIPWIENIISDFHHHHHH

Compared with B1, B2 is 3.3-fold higher in “human MASP2 IC50” value: 30 nM for the first, 100 nM for the second.

Compared with B3, B4 is 3.6-fold higher in “human MASP2 IC50” value: 44 nM for the first, 160 nM for the second.

Compared with B5, B6 is 2.7-fold higher in “human MASP2 IC50” value: 64 nM for the first, 170 nM for the second.

Compared with B7, B8 is 2.5-fold higher in “human MASP2 IC50” value: 59 nM for the first, 150 nM for the second.

First: B9
Second: B10
The “human MASP2 IC50” value of the first is 16-fold higher: 930 nM for the first, 57 nM for the second.

First: B11
Second: B12
The “human MASP2 IC50” value of the first is 3.3-fold higher: 170 nM for the first, 52 nM for the second.

B13 and B14 are within 1.5-fold of each other in “human MASP2 IC50” value: 68 nM for the first, 63 nM for the second.

For B15, the “human MASP2 IC50” value was 230 nM.
